# From PMC10858868, “TFIP11 promotes replication fork reversal to preserve genome stability”
# T1: TFIP11 (UniProt Q9UBB9 1-837)
# T1 sequence: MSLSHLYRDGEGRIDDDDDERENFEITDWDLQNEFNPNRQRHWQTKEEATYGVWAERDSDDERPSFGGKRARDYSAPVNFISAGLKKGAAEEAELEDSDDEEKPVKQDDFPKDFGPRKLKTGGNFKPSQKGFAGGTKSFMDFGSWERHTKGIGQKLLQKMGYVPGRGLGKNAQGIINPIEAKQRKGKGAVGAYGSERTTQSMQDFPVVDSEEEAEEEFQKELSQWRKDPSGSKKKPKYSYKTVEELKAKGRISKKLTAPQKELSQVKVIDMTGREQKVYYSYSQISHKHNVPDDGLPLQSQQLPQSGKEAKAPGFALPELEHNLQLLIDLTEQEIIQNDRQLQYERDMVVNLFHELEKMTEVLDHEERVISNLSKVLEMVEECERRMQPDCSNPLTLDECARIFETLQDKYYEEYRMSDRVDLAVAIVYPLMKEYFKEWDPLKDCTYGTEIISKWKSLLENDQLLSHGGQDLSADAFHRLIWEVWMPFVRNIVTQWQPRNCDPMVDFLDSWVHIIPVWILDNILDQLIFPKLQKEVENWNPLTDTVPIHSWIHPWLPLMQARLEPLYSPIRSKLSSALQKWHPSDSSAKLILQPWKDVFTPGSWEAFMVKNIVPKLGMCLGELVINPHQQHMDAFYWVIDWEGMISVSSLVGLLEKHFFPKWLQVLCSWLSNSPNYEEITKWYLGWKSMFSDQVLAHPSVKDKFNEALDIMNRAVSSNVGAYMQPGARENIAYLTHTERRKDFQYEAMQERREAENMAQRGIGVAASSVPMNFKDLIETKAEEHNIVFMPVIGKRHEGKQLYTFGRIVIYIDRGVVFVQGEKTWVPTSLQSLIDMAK
# B1: dsDNA (oligo 1 + oligo 2) (dsDNA)
# DNA 1: GACGCTGCCGAATTCTACCAGTGCCTTGCTAGGACATCTTTGCCCACCTGCAGGTTCAC
# DNA 2: GTGAACCTGCAGGTGGGCAAAGATGTCCTAGCAAGGCACTGGTAGAATTCGGCAGCGTC
# B2: ssDNA (oligo 1) (ssDNA)
# DNA: B1 DNA 1
# Target: T1, TFIP11
# Test: EMSA; 15, 30 nM TFIP11; 0.5 nM DNA; at most about 6% bound in Source Data; EMSA: 10 mM MgCl2, 2.5% glycerol, 0.05% NP-40, 0.5 nM biotin-DNA, 20 min, room temperature (Pierce LightShift kit). Pull-down: 20 mM Tris-HCl pH 7.5, 120 mM NaCl, 0.1% Triton X-100, 2 mM CaCl2, 10 mM Mg(OAc)2, 1 mM DTT, 0.1 mg/mL BSA, 4 °C, 30 min
# Conditions: protein: recombinant, tags: His-SUMO (N-terminal)
Binder,"binding result (label: 5'-biotin on oligo 1, blunt)","binding result (label: 5'-biotin, single strand)"
B1,no binding,
B2,,no binding
